Measurements from paper PMC3988186.

Tests used:
[1] = target: beta-arrestin 1 (UniProt P49407); conditions: 2'-F pyrimidines (2'F-C, 2'F-U); Kd assay buffer not stated separately; selection buffer F: 20 mM HEPES pH 7.4, 150 mM NaCl, 1 mM CaCl2, 1 mM MgCl2, 0.01% BSA, 37 C
[2] = target: beta-arrestin 2 (UniProt P32121); conditions: 2'-F pyrimidines (2'F-C, 2'F-U); Kd assay buffer not stated separately; selection buffer F: 20 mM HEPES pH 7.4, 150 mM NaCl, 1 mM CaCl2, 1 mM MgCl2, 0.01% BSA, 37 C
Sequence of beta-arrestin 2 (P32121 whole entry): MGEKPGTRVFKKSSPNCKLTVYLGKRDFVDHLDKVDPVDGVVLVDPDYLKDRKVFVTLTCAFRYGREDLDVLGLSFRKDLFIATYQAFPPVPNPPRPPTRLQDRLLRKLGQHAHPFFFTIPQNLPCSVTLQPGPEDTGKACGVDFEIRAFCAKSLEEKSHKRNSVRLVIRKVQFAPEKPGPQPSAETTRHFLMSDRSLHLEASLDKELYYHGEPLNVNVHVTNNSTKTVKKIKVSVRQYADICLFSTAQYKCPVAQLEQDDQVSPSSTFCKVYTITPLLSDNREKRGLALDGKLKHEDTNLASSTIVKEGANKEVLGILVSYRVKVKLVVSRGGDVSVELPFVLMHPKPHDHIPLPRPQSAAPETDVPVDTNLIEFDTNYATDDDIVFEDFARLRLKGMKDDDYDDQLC

Sequence of beta-arrestin 1 (P49407 whole entry): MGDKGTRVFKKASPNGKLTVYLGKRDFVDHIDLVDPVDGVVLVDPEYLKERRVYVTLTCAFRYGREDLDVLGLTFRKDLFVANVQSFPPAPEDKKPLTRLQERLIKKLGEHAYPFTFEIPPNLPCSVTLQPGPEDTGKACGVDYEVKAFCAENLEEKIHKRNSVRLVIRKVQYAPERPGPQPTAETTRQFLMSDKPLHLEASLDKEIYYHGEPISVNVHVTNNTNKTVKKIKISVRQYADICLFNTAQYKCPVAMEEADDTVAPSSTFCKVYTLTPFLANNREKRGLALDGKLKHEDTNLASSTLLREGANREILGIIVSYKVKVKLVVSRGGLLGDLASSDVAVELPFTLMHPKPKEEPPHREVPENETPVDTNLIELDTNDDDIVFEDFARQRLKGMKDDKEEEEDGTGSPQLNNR

Sequence | Kd [1] [nM] | Kd [2] [nM]
GGGAGGACGAUGCGGAUUCCGUUAAGUAUCGCGUUAAACGCUAUGCGGACGCGUCAGACGACUCGCUGAGGAUCCGAGA [beta-arr2A1] | 966 | 19.8
GGGAGGACGAUGCGGCCAGGUGUAGACAGACGUGAGAGAUUGACCUGGCAGCAGCCAGACGACUCGCUGAGGAUCCGAGA [beta-arr2A2] | 2160 | 4.13
GGGAGGACGAUGCGGAUCCUCGUCCCGUCACGGCAGAACCACGUCAGGCCUUCAACAGACGACUCGCUGAGGAUCCGAGA [beta-arr2A3] | 748 | 22
